Reference: IntAct's records for PubMed 29892012

B1: Abl interactor 2 (Homo sapiens), Q9NYB9 (parent)
chain: MAELQMLLEEEIPGGRRALFDSYTNLERVADYCENNYIQSADKQRALEETKAYTTQSLASVAYLINTLANNVLQMLDIQASQLRRMESSINHISQTVDIHKEKVARREIGILTTNKNTSRTHKIIAPANLERPVRYIRKPIDYTILDDIGHGVKWLLRFKVSTQNMKMGGLPRTTPPTQKPPSPPMSGKGTLGRHSPYRTLEPVRPPVVPNDYVPSPTRNMAPSQQSPVRTASVNQRNRTYSSSGSSGGSHPSSRSSSRENSGSGSVGVPIAVPTPSPPSVFPAPAGSAGTPPLPATSASAPAPLVPATVPSSTAPNAAAGGAPNLADGFTSPTPPVVSSTPPTGHPVQFYSMNRPASRHTPPTIGGSLPYRRPPSITSQTSLQNQMNGGPFYSQNPVSDTPPPPPPVEEPVFDESPPPPPPPEDYEEEEAAVVEYSDPYAEEDPPWAPRSYLEKVVAIYDYTKDKEDELSFQEGAIIYVIKKNDDGWYEGVMNGVTGLFPGNYVESIMHYSE
partner: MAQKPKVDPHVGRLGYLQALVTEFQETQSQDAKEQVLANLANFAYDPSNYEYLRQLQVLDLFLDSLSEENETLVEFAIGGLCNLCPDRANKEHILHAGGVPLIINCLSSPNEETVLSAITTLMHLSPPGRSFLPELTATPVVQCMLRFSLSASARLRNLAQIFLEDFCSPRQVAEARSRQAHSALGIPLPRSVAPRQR
B2: Zinc finger protein ZXDC (Homo sapiens), Q2QGD7 (parent)
chain: MDLPALLPAPTARGGQHGGGPGPLRRAPAPLGASPARRRLLLVRGPEDGGPGARPGEASGPSPPPAEDDSDGDSFLVLLEVPHGGAAAEAAGSQEAEPGSRVNLASRPEQGPSGPAAPPGPGVAPAGAVTISSQDLLVRLDRGVLALSAPPGPATAGAAAPRRAPQASGPSTPGYRCPEPQCALAFAKKHQLKVHLLTHGGGQGRRPFKCPLEGCGWAFTTSYKLKRHLQSHDKLRPFGCPVGGCGKKFTTVYNLKAHMKGHEQESLFKCEVCAERFPTHAKLSSHQRSHFEPERPYKCDFPGCEKTFITVSALFSHNRAHFREQELFSCSFPGCSKQYDKACRLKIHLRSHTGERPFICDSDSCGWTFTSMSKLLRHRRKHDDDRRFTCPVEGCGKSFTRAEHLKGHSITHLGTKPFECPVEGCCARFSARSSLYIHSKKHVQDVGAPKSRCPVSTCNRLFTSKHSMKAHMVRQHSRRQDLLPQLEAPSSLTPSSELSSPGQSELTNMDLAALFSDTPANASGSAGGSDEALNSGILTIDVTSVSSSLGGNLPANNSSLGPMEPLVLVAHSDIPPSLDSPLVLGTAATVLQQGSFSVDDVQTVSAGALGCLVALPMKNLSDDPLALTSNSNLAAHITTPTSSSTPRENASVPELLAPIKVEPDSPSRPGAVGQQEGSHGLPQSTLPSPAEQHGAQDTELSAGTGNFYLESGGSARTDYRAIQLAKEKKQRGAGSNAGASQSTQRKIKEGKMSPPHFHASQNSWLCGSLVVPSGGRPGPAPAAGVQCGAQGVQVQLVQDDPSGEGVLPSARGPATFLPFLTVDLPVYVLQEVLPSSGGPAGPEATQFPGSTINLQDLQ
B3: E3 ubiquitin-protein ligase LNX (Homo sapiens), Q8TBB1 (parent)
chain: MNQPESANDPEPLCAVCGQAHSLEENHFYSYPEEVDDDLICHICLQALLDPLDTPCGHTYCTLCLTNFLVEKDFCPMDRKPLVLQHCKKSSILVNKLLNKLLVTCPFREHCTQVLQRCDLEHHFQTSCKGASHYGLTKDRKRRSQDGCPDGCASLTATAPSPEVSAAATISLMTDEPGLDNPAYVSSAEDGQPAISPVDSGRSNRTRARPFERSTIRSRSFKKINRALSVLRRTKSGSAVANHADQGRENSENTTAPEVFPRLYHLIPDGEITSIKINRVDPSESLSIRLVGGSETPLVHIIIQHIYRDGVIARDGRLLPGDIILKVNGMDISNVPHNYAVRLLRQPCQVLWLTVMREQKFRSRNNGQAPDAYRPRDDSFHVILNKSSPEEQLGIKLVRKVDEPGVFIFNVLDGGVAYRHGQLEENDRVLAINGHDLRYGSPESAAHLIQASERRVHLVVSRQVRQRSPDIFQEAGWNSNGSWSPGPGERSNTPKPLHPTITCHEKVVNIQKDPGESLGMTVAGGASHREWDLPIYVISVEPGGVISRDGRIKTGDILLNVDGVELTEVSRSEAVALLKRTSSSIVLKALEVKEYEPQEDCSSPAALDSNHNMAPPSDWSPSWVMWLELPRCLYNCKDIVLRRNTAGSLGFCIVGGYEEYNGNKPFFIKSIVEGTPAYNDGRIRCGDILLAVNGRSTSGMIHACLARLLKELKGRITLTIVSWPGTFL
partner: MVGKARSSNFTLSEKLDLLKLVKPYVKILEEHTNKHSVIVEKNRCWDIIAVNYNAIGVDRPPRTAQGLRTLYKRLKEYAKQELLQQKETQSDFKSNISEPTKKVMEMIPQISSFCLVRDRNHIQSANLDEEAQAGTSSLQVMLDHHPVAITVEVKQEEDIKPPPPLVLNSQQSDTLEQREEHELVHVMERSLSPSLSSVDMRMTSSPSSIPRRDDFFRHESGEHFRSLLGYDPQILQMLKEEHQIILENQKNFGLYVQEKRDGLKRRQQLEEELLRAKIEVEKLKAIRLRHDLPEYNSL
B4: Acetylcholine receptor subunit gamma (Homo sapiens), P07510 (parent)
chain: MHGGQGPLLLLLLLAVCLGAQGRNQEERLLADLMQNYDPNLRPAERDSDVVNVSLKLTLTNLISLNEREEALTTNVWIEMQWCDYRLRWDPRDYEGLWVLRVPSTMVWRPDIVLENNVDGVFEVALYCNVLVSPDGCIYWLPPAIFRSACSISVTYFPFDWQNCSLIFQSQTYSTNEIDLQLSQEDGQTIEWIFIDPEAFTENGEWAIQHRPAKMLLDPAAPAQEAGHQKVVFYLLIQRKPLFYVINIIAPCVLISSVAILIHFLPAKAGGQKCTVAINVLLAQTVFLFLVAKKVPETSQAVPLISKYLTFLLVVTILIVVNAVVVLNVSLRSPHTHSMARGVRKVFLRLLPQLLRMHVRPLAPAAVQDTQSRLQNGSSGWSITTGEEVALCLPRSELLFQQWQRQGLVAAALEKLEKGPELGLSQFCGSLKQAAPAIQACVEACNLIACARHQQSHFDNGNEEWFLVGRVLDRVCFLAMLSLFICGTAGIFLMAHYNRVPALPFPGDPRPYLPSPD
partner: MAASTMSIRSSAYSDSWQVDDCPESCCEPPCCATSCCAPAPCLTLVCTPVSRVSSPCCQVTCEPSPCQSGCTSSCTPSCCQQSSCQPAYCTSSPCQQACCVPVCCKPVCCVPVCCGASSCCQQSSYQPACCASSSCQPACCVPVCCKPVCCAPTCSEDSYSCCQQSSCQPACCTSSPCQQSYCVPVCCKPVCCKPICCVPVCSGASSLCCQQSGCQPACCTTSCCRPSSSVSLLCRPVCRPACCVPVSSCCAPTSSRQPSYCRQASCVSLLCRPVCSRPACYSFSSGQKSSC
B5: E3 ubiquitin-protein ligase TRIM17 (Homo sapiens), Q9Y577 (parent)
chain: MEAVELARKLQEEATCSICLDYFTDPVMTTCGHNFCRACIQLSWEKARGKKGRRKRKGSFPCPECREMSPQRNLLPNRLLTKVAEMAQQHPGLQKQDLCQEHHEPLKLFCQKDQSPICVVCRESREHRLHRVLPAEEAVQGYKLKLEEDMEYLREQITRTGNLQAREEQSLAEWQGKVKERRERIVLEFEKMNLYLVEEEQRLLQALETEEEETASRLRESVACLDRQGHSLELLLLQLEERSTQGPLQMLQDMKEPLSRKNNVSVQCPEVAPPTRPRTVCRVPGQIEVLRGFLEDVVPDATSAYPYLLLYESRQRRYLGSSPEGSGFCSKDRFVAYPCAVGQTAFSSGRHYWEVGMNITGDALWALGVCRDNVSRKDRVPKCPENGFWVVQLSKGTKYLSTFSALTPVMLMEPPSHMGIFLDFEAGEVSFYSVSDGSHLHTYSQATFPGPLQPFFCLGAPKSGQMVISTVTMWVKG
partner: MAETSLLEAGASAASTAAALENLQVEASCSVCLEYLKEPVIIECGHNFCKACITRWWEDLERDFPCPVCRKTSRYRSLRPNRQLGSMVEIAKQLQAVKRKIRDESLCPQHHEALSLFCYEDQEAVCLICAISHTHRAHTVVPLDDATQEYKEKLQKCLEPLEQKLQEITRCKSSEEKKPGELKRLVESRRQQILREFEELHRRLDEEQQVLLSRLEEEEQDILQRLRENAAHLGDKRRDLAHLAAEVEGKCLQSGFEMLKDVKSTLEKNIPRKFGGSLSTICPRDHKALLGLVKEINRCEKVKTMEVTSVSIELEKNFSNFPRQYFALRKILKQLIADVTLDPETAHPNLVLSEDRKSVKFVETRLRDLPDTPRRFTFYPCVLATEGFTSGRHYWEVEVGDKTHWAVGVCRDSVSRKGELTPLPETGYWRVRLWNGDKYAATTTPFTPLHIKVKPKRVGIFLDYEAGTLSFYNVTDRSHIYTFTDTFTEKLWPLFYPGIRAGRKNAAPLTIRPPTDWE

Variants of: B1
Conditions: with armc7_human ARMC7, Q9H6L4

Row | Variant | effect of a mutation on the interaction
1 | E202K | with no effect

Variants of: B2
Conditions: with wdr5_human WDR5, P61964

Row | Variant | effect of a mutation on the interaction
2 | T589M | with no effect

Variants of: B3
Conditions: with fsbp_human FSBP

Row | Variant | effect of a mutation on the interaction
3 | E295K | disrupting interaction strength

Variants of: B4
Conditions: with kr109_human KRTAP10-9, P60411

Row | Variant | effect of a mutation on the interaction
4 | I448T | with no effect

Variants of: B5
Conditions: with tri39_human TRIM39, Q9HCM9

Row | Variant | effect of a mutation on the interaction
5 | R159T | with no effect
